Assay results published in patent US12679878B2, “CRF2 receptor agonists and their use in therapy” (SANOFI, priority 2020, dated 2026).
Starred links: 1 amine or outer side, 2 acyl side, 3 side chain; linkers in the order of their positions; H or OH if unused. Groups on a side chain read outwards from the residue. No end group written: not given here. *: point of attachment. C18 diacid = O=C(O)CCCCCCCCCCCCCCCCC(=O)*; γGlu = O=C(O)[C@H](CCC(=O)[*:2])N[*:1]; AEEA = NCCOCCOCC(=O)O

Molecular target: human corticotropin-releasing factor 2α (CRF2 α receptor) (human), Q13324
Assay: cell-based or functional assay

human corticotropin-releasing factor 2α (CRF2 α receptor) (human), Q13324, sequence (Q13324 20-411): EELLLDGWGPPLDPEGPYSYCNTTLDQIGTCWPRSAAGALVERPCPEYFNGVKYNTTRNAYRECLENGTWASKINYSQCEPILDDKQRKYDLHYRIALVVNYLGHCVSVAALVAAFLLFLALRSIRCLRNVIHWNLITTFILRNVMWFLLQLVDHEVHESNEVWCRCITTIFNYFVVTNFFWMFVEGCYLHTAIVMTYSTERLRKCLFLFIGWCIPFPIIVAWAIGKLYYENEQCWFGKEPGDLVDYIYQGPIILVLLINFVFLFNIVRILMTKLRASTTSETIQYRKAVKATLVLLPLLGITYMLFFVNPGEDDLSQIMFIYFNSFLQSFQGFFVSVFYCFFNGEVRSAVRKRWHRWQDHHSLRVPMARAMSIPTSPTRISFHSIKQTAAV

EC50 [nM], 0% HSA [nM] | EC50 [nM], 0.1% HSA [nM] | Binder
0.11 | 4.36 | FTLSLDVPIKLK([AEEA-AEEA-γGlu-C18 diacid])QILLKQERQKKQRQKAKKNKQILERV-NH2 (N-terminus assumed; SMILES CC[C@H](C)[C@H](NC(=O)[C@H](CCC(N)=O)NC(=O)[C@H](CCCCNC(=O)COCCOCCNC(=O)COCCOCCNC(=O)CC[C@H](NC(=O)CCCCCCCCCCCCCCCCC(=O)O)C(=O)O)NC(=O)[C@H](CC(C)C)NC(=O)[C@H](CCCCN)NC(=O)[C@@H](NC(=O)[C@@H]1CCCN1C(=O)[C@@H](NC(=O)[C@H](CC(=O)O)NC(=O)[C@H](CC(C)C)NC(=O)[C@H](CO)NC(=O)[C@H](CC(C)C)NC(=O)[C@@H](NC(=O)[C@@H](N)Cc1ccccc1)[C@@H](C)O)C(C)C)[C@@H](C)CC)C(=O)N[C@@H](CC(C)C)C(=O)N[C@@H](CC(C)C)C(=O)N[C@@H](CCCCN)C(=O)N[C@@H](CCC(N)=O)C(=O)N[C@@H](CCC(=O)O)C(=O)N[C@@H](CCCNC(=N)N)C(=O)N[C@@H](CCC(N)=O)C(=O)N[C@@H](CCCCN)C(=O)N[C@@H](CCCCN)C(=O)N[C@@H](CCC(N)=O)C(=O)N[C@@H](CCCNC(=N)N)C(=O)N[C@@H](CCC(N)=O)C(=O)N[C@@H](CCCCN)C(=O)N[C@@H](C)C(=O)N[C@@H](CCCCN)C(=O)N[C@@H](CCCCN)C(=O)N[C@@H](CC(N)=O)C(=O)N[C@@H](CCCCN)C(=O)N[C@@H](CCC(N)=O)C(=O)N[C@H](C(=O)N[C@@H](CC(C)C)C(=O)N[C@@H](CCC(=O)O)C(=O)N[C@@H](CCCNC(=N)N)C(=O)N[C@H](C(N)=O)C(C)C)[C@@H](C)CC) [SEQ ID NO: 146]
1.46 | 96.9 | FTLSLDVPTKIK([AEEA-AEEA-γGlu-C18 diacid])QILLKQERQKKQRQKAKKNKQILERV-NH2 (N-terminus assumed; SMILES CC[C@H](C)[C@H](NC(=O)[C@H](CCC(N)=O)NC(=O)[C@H](CCCCN)NC(=O)[C@H](CC(N)=O)NC(=O)[C@H](CCCCN)NC(=O)[C@H](CCCCN)NC(=O)[C@H](C)NC(=O)[C@H](CCCCN)NC(=O)[C@H](CCC(N)=O)NC(=O)[C@H](CCCNC(=N)N)NC(=O)[C@H](CCC(N)=O)NC(=O)[C@H](CCCCN)NC(=O)[C@H](CCCCN)NC(=O)[C@H](CCC(N)=O)NC(=O)[C@H](CCCNC(=N)N)NC(=O)[C@H](CCC(=O)O)NC(=O)[C@H](CCC(N)=O)NC(=O)[C@H](CCCCN)NC(=O)[C@H](CC(C)C)NC(=O)[C@H](CC(C)C)NC(=O)[C@@H](NC(=O)[C@H](CCC(N)=O)NC(=O)[C@H](CCCCNC(=O)COCCOCCNC(=O)COCCOCCNC(=O)CC[C@H](NC(=O)CCCCCCCCCCCCCCCCC(=O)O)C(=O)O)NC(=O)[C@@H](NC(=O)[C@H](CCCCN)NC(=O)[C@@H](NC(=O)[C@@H]1CCCN1C(=O)[C@@H](NC(=O)[C@H](CC(=O)O)NC(=O)[C@H](CC(C)C)NC(=O)[C@H](CO)NC(=O)[C@H](CC(C)C)NC(=O)[C@@H](NC(=O)[C@@H](N)Cc1ccccc1)[C@@H](C)O)C(C)C)[C@@H](C)O)[C@@H](C)CC)[C@@H](C)CC)C(=O)N[C@@H](CC(C)C)C(=O)N[C@@H](CCC(=O)O)C(=O)N[C@@H](CCCNC(=N)N)C(=O)N[C@H](C(N)=O)C(C)C) [SEQ ID NO: 145]
